Measured values: patent US10000775B2, “Biosynthesis of 1-undecene and related terminal olefins” (The Regents of the University of California, priority 2013, dated 2018)

Key:
[1] = Stoichiometry determination in single-turnover reactions; type: biochemical
Protocol: FIG. 27 illustrates the requirement for O2 for PFL_4321 activity.
To investigate 1-undecene formation and the O2 consumption, 0.5 mL of reaction mixture was prepared to contain 50 mM MES buffer (pH 6.2), 300 mM NaCl, 45 μM PFL_4321-Fe(II), and 500 μM LA (25 mM stock solution of LA sodium salt was prepared in 2% tergitol; tergitol is not required for <150 μM of LA). MES buffer (pH 6.2) was selected to reach slightly higher enzymatic activity than other buffers such as Bis-Tris (pH 6.0-7.0), Tris (pH 7.5-8.5), MOPS (pH 6.5-7.5), and HEPES (pH 6.8-8.0). The reaction was performed in a sealed headspace vial, initiated by adding PFL_4321 at room temperature and quenched by injecting equal volume of 5 M NaOH. 1-undecene production was analyzed and quantified using the SPME-GCMS method. The correlations of total 1-undecene produced and enzyme used were further determined varying PFL_4321 concentrations (40-1000 μM), and similar single turnover reactions were obtained in all assays (˜0.7-0.8 molecule of 1-undecene per molecule of PFL_4321-Fe(II)). O2 concentration was measured in a sealed reaction chamber (0.5 mL) with an integrated oxygen electrode unit (Oxygraph Plus System, Hansatech Instruments, UK). For the control group, LA was omitted from the reaction mixture.

[2] = Enzyme recycling experiments; type: biochemical; settings: for 1-undecene produced (activity) compared with the original PFL_4321: recycled after single turnover with EDTA, reconstituted with fresh Fe2+
Protocol: To recycle the PFL_4321, 1 mL of the oxygenated buffer solution (50 mM MES, pH 6.2, 100 mM NaCl) was mixed with 1 mL of an O2-free solution containing 50 mM MES buffer (pH 6.2), 100 mM NaCl, 200 μM PFL_4321, 1 mM (NH4)2Fe(SO4)2, 2 mM LA, so that the final mixture contained 50 mM MES buffer (pH 6.2), 100 mM NaCl, 100 μM PFL_4321, 0.5 mM (NH4)2Fe(SO4)2, and 1 mM LA. This original reaction was quenched by adding 10-fold excess of EDTA to iron. The mixture was desalted on a GE Disposable PD-10 column and incubated at 4° C. on a nutator for two hours to completely remove the residual 1-undecene in the solution. The recycled apo-PFL_4321 was concentrated by using Centrifugal Filter Units (Millipore) and subjected to a second enzymatic assay that contained 50 mM MES buffer (pH 6.2), 100 mM NaCl, 100 μM PFL_4321, 0.5 mM (NH4)2Fe(SO4)2, and 1 mM LA. To initiate the reaction, 100 μL of the oxygenated buffer solution (50 mM MES, pH 6.2, 100 mM NaCl) was mixed with 100 μL of an O2-free solution containing 50 mM MES buffer (pH 6.2), 100 mM NaCl, 200 μM PFL_4321, 1 mM (NH4)2Fe(SO4)2, 2 mM LA. The control group was set up under similar conditions except that the original apo-PFL_4321 which had not been used for any enzymatic reactions was used. The experimental group containing recycled PFL_4321 produced 80% of the 1-undecene compared with the control group that contained the original PFL_4321.

[3] = test system: Saccharomyces cerevisiae S288c; test: Small-scale 1-alkene production in S. cerevisiae; type: cell-based; settings: expression of PFL_4321, 30° C., 36 hours
Protocol: FIG. 25 illustrates GC-MS analysis of 1-undecene and nonene productions from Saccharomyces cerevisiae S288c (pESC_URA_PFL_4321). Saccharomyces cerevisiae S288c (pESC_URA_PFL_4321) was cultured in YPD media in sealed headspace vial at 30° C. for 36 hours before sampling using SPME-GCMS method.
PFL_4321 was PCR-amplified by using pESC-und-F/-R as primers (Table 1) and pZR59 as template, digested with BamH1/Sal1, and ligated into the pESC-URA vector to yield pESC-PFL_4321. S. cerevisiae was then transformed with pESC-PFL_4321 using the lithium acetate method outlined in the pESC-URA manual (Stratagene). Transformants were selected by […]. The cultures were grown in yeast-peptone media supplemented with 1% galactose in headspace GC vials at 30° C. for 36 hr before SPME-GCMS analysis.

[4] = Initial production rate determination under single turnover conditions; type: biochemical; settings: single turnover condition
Protocol: To determine the initial rates of 1-alkene production under the single turnover conditions, the O2-saturated buffer solution (50 mM MES, pH 6.2, 100 mM NaCl) was mixed with an equal volume of an O2-free solution containing 50 mM MES buffer (pH 6.2), 100 mM NaCl, 200 μM (NH4)2Fe(SO4)2, 0.2-20 μM PFL_4321, and various concentrations of substrate (2-300 μM), so that the final mixture contained 50 mM MES buffer (pH 6.2), 100 mM NaCl, 0.1-10 μM PFL_4321, 100 μM (NH4)2Fe(SO4)2, and various concentrations of substrate (1-150 μM). The reactions were carried out in sealed GC vials and quenched by injecting 1 M NaOH at 2, 4, 6, 8, 10, 20, 30, 40, 50, 60 seconds. The productions of 1-alkenes were analyzed by SPME-GCMS analysis.

[5] = measured stoichiometry, aerobic

B1: PFL_4321: protein of 261 amino acids from Pseudomonas fluorescens Pf-5; non-heme iron (II)-dependent enzyme converting medium-chain fatty acids into terminal olefins (protein, listed as Pseudomonas fluorescens)
chain: MIDTFSRTGPLMEAASYPAWTQQLIQDCSESKRRVVEHELYQRMRDNKLSAKVMRQYLIGGWPVVEQFALYMAQNLTKTRFARHPGEDMARRWLMRNIRVELNHADYWVHWSRAHGVTLEDLQAQQVPPELHALSHWCWHTSSADSLIVAIAATNYAIEGATGEWSALVCSNGIYAAAFPEEDRKRAMKWLKMHAQYDDAHPWEALEIIVTLAGLNPTKALQAELRQAICKSYDYMYLFLERCMQQEKTAVTRERLALAEG
With B1 the “1-undecene produced per molecule of PFL_4321-Fe(II)” value [1, 5] was “approximately one”, the “O2 consumed per molecule of PFL_4321-Fe(II)” value [1, 5] was “approximately one” and the “total 1-undecene produced per enzyme used” value ([1]; single turnover reactions, PFL_4321 40-1000 μM) was 0.7-0.8 molecule of 1-undecene per molecule of PFL_4321-Fe(II). For the same molecule, the “1-undecene production by recycled enzyme” value ([2]; EDTA omitted, desalted) was “failed to catalyze the reaction”, the “1-undecene produced (activity) compared with the original PFL_4321” value ([2]; listed as apo-PFL_4321) was “over 80%” and the “1-undecene produced (activity) compared with the original PFL_4321” value ([2]; listed as recycled PFL_4321) was 80%. For the same molecule, the “production of 1-alkenes in Saccharomyces cerevisiae” value [3] was “led to the production of 1-undecene and 1-nonene in comparable amounts” and the “initial rate of 1-undecene production” value [4] was 0.06±0.002 mol 1-undecene/(mol PFL_4321-Fe(II) second).
